Biological target: T1, PUF4 RNA-binding domain (Saccharomyces cerevisiae, UniProt P25339 537-888)
T1 sequence: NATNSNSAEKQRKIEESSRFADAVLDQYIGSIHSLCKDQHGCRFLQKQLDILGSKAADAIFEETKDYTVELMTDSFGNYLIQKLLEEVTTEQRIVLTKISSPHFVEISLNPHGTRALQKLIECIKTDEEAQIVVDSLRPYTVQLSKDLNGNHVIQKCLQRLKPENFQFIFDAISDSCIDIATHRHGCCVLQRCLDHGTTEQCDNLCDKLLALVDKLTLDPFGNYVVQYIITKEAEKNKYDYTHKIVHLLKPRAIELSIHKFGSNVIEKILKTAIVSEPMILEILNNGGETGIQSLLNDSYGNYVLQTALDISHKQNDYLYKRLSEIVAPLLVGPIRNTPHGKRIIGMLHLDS
Assay: Mg; RNA-MaP; 20 mM Na-HEPES pH 7.4, 30 mM KOAc, 0.75 mM MgCl2, 0.1% Tween-20, 5% glycerol, 0.1 mg/mL BSA, 2 mM DTT; 25 C; 0.0125-409.6 nM protein
Conditions: tags: N-His6-TEV cleaved; C-SNAP kept, Cy3B-labelled; label: tethered on chip by stalled RNA polymerase

B1: Ic_S1_P4E.1_K4.1_C4.1_H4.1_A4.1_[A6C]_F4.1_[T8C]_[A9T]_T4.1 (ssRNA)
RNA: UCUCUUUGUAUCUCUUCUCUU
Q: With B1 as the binder, how does the Kd read?
A: 522 nM

B2: Ic_S1_P4E.1_K4.1_C4.1_H4.1_A4.1_[A6G]_F4.1_[T8A]_[A9T]_T4.1 (ssRNA)
RNA: UCUCUUUGUAUGUAUUCUCUU
Q: B2 was tested. Which Kd did it give?
A: 71.2 nM

B3: Ic_S1_P4E.1_K4.1_C4.1_H4.1_A4.1_[A6C]_[T7A]_F4.1_[T8C]_T4.1 (ssRNA)
RNA: UCUCUUUGUAUCACAUCUCUU
Q: Which Kd does the source give for B3 here?
A: 74.8 nM

B4: Ic_S1_P4E.1_K4.1_C4.1_H4.1_A4.1_[A6T]_[T7C]_F4.1_[T8A]_[A9G]_T4.1 (ssRNA)
RNA: UCUCUUUGUAUUCAGUCUCUU
Q: How did the Kd turn out when B4 was run?
A: 642 nM

B5: Ic_S1_P4E.1_K4.1_C4.1_H4.1_A4.1_[A6C]_F4.1_[T8G]_[A9T]_T4.1 (ssRNA)
RNA: UCUCUUUGUAUCUGUUCUCUU
Q: For B5, which Kd is on record?
A: 58.6 nM

B6: Ic_S1_P4E.1_K4.1_C4.1_H4.1_A4.1_[A6T]_[T7G]_F4.1_[T8C]_T4.1 (ssRNA)
RNA: UCUCUUUGUAUUGCAUCUCUU
Q: B6 was tested. Which Kd did it give?
A: 365 nM

B7: Ic_S1_P4E.1_K4.1_C4.1_H4.1_A4.1_[A6T]_[T7A]_F4.1_[T8C]_[A9G]_T4.1 (ssRNA)
RNA: UCUCUUUGUAUUACGUCUCUU
Q: How did the Kd turn out when B7 was run?
A: 844 nM

B8: Ic_S1_P4E.1_K4.1_C4.1_H4.1_A4.1_[A6T]_[T7A]_F4.1_[T8G]_[A9C]_T4.1 (ssRNA)
RNA: UCUCUUUGUAUUAGCUCUCUU
Q: For B8, which Kd is on record?
A: 530 nM

B9: Ic_S1_P4E.1_K4.1_C4.1_H4.1_A4.1_[A6T]_[T7C]_F4.1_[T8C]_[A9T]_T4.1 (ssRNA)
RNA: UCUCUUUGUAUUCCUUCUCUU
Q: For B9, which Kd is on record?
A: 114 nM

B10: Ic_S1_P4E.1_K4.1_C4.1_H4.1_A4.1_[A6C]_[T7C]_F4.1_[T8A]_T4.1 (ssRNA)
RNA: UCUCUUUGUAUCCAAUCUCUU
Q: Which Kd does the source give for B10 here?
A: 1050 nM

B11: Ic_S1_P4E.1_K4.1_C4.1_H4.1_A4.1_[A6T]_[T7C]_F4.1_[T8G]_[A9C]_T4.1 (ssRNA)
RNA: UCUCUUUGUAUUCGCUCUCUU
Q: B11 was tested. Which Kd did it give?
A: 1060 nM

B12: Ic_S1_P4E.1_K4.1_C4.1_H4.1_A4.1_[A6T]_[T7G]_F4.1_[T8C]_[A9G]_T4.1 (ssRNA)
RNA: UCUCUUUGUAUUGCGUCUCUU
Q: How did the Kd turn out when B12 was run?
A: 926 nM

B13: Ic_S1_P4E.1_K4.1_C4.1_H4.1_A4.1_[A6C]_[T7A]_F4.1_[T8A]_[A9T]_T4.1 (ssRNA)
RNA: UCUCUUUGUAUCAAUUCUCUU
Q: With B13 as the binder, how does the Kd read?
A: 91.5 nM

B14: Ic_S1_P4E.1_K4.1_C4.1_H4.1_A4.1_[A6C]_[T7A]_F4.1_[T8A]_[A9C]_T4.1 (ssRNA)
RNA: UCUCUUUGUAUCAACUCUCUU
Q: B14 was tested. Which Kd did it give?
A: 508 nM

B15: Ic_S1_P4E.1_K4.1_C4.1_H4.1_A4.1_[A6T]_[T7G]_F4.1_[A9T]_T4.1 (ssRNA)
RNA: UCUCUUUGUAUUGUUUCUCUU
Q: B15 was tested. Which Kd did it give?
A: 33.6 nM

B16: Ib_S1_P3E.1_K3.1_C3.1_H3.1_A3.1_[A6T]_F3.1_[T7C]_T3.1 (ssRNA)
RNA: UCUCUUUGUAUUCAUCUCUU
Q: How did the Kd turn out when B16 was run?
A: 296 nM

B17: Ic_S1_P4E.1_K4.1_C4.1_H4.1_A4.1_[A6T]_[T7C]_F4.1_[T8A]_[A9T]_T4.1 (ssRNA)
RNA: UCUCUUUGUAUUCAUUCUCUU
Q: How did the Kd turn out when B17 was run?
A: 141 nM

B18: Ic_S1_P3E.1_K3.1_C3.1_H3.1_A3.1_[A6G]_F3.1_[T7C]_T3.1 (ssRNA)
RNA: UCUCUUUGUAUGCAUCUCUU
Q: With B18 as the binder, how does the Kd read?
A: 1280 nM

B19: Ic_S1_P4E.1_K4.1_C4.1_H4.1_A4.1_[A6C]_[T7C]_F4.1_[A9G]_T4.1 (ssRNA)
RNA: UCUCUUUGUAUCCUGUCUCUU
Q: Which Kd does the source give for B19 here?
A: 82.6 nM

B20: Ic_S1_P4E.1_K4.1_C4.1_H4.1_A4.1_[A6C]_[T7A]_F4.1_[T8G]_[A9T]_T4.1 (ssRNA)
RNA: UCUCUUUGUAUCAGUUCUCUU
Q: B20 was tested. Which Kd did it give?
A: 316 nM

B21: Ic_S1_P4E.1_K4.1_C4.1_H4.1_A4.1_[A6C]_F4.1_[T8C]_[A9G]_T4.1 (ssRNA)
RNA: UCUCUUUGUAUCUCGUCUCUU
Q: Which Kd does the source give for B21 here?
A: 382 nM

B22: Ic_S1_P4E.1_K4.1_C4.1_H4.1_A4.1_[A6T]_[T7G]_F4.1_[T8C]_[A9C]_T4.1 (ssRNA)
RNA: UCUCUUUGUAUUGCCUCUCUU
Q: Which Kd does the source give for B22 here?
A: 943 nM

B23: Ic_S1_P4E.1_K4.1_C4.1_H4.1_A4.1_[A6C]_[T7A]_F4.1_[A9G]_T4.1 (ssRNA)
RNA: UCUCUUUGUAUCAUGUCUCUU
Q: With B23 as the binder, how does the Kd read?
A: 8.82 nM

B24: Ic_S1_P4E.1_K4.1_C4.1_H4.1_A4.1_[A6T]_[T7A]_F4.1_[T8C]_[A9T]_T4.1 (ssRNA)
RNA: UCUCUUUGUAUUACUUCUCUU
Q: How did the Kd turn out when B24 was run?
A: 49.6 nM

B25: Ic_S1_P4E.1_K4.1_C4.1_H4.1_A4.1_[A6C]_[T7C]_F4.1_[T8C]_[A9C]_T4.1 (ssRNA)
RNA: UCUCUUUGUAUCCCCUCUCUU
Q: B25 was tested. Which Kd did it give?
A: 1020 nM

B26: Ic_S1_P4E.1_K4.1_C4.1_H4.1_A4.1_[A6C]_[T7G]_F4.1_[T8A]_[A9C]_T4.1 (ssRNA)
RNA: UCUCUUUGUAUCGACUCUCUU
Q: B26 was tested. Which Kd did it give?
A: > 2300 nM

B27: Ic_S1_P4E.1_K4.1_C4.1_H4.1_A4.1_[A6C]_[T7C]_F4.1_[T8G]_[A9T]_T4.1 (ssRNA)
RNA: UCUCUUUGUAUCCGUUCUCUU
Q: How did the Kd turn out when B27 was run?
A: 1300 nM

B28: Ib_S1_P3E.1_K3.1_C3.1_H3.1_A3.1_[A6T]_F3.1_[T7A]_T3.1 (ssRNA)
RNA: UCUCUUUGUAUUAAUCUCUU
Q: For B28, which Kd is on record?
A: 312 nM

B29: Ic_S1_P4E.1_K4.1_C4.1_H4.1_A4.1_[A6C]_[T7C]_F4.1_[T8C]_T4.1 (ssRNA)
RNA: UCUCUUUGUAUCCCAUCUCUU
Q: How did the Kd turn out when B29 was run?
A: 709 nM

B30: Ic_S1_P4E.1_K4.1_C4.1_H4.1_A4.1_[A6T]_[T7C]_F4.1_[T8C]_[A9C]_T4.1 (ssRNA)
RNA: UCUCUUUGUAUUCCCUCUCUU
Q: For B30, which Kd is on record?
A: 505 nM

B31: Ic_S1_P4E.1_K4.1_C4.1_H4.1_A4.1_[A6T]_[T7G]_F4.1_[T8C]_[A9T]_T4.1 (ssRNA)
RNA: UCUCUUUGUAUUGCUUCUCUU
Q: For B31, which Kd is on record?
A: 443 nM

B32: Ic_S1_P4E.1_K4.1_C4.1_H4.1_A4.1_[A6C]_F4.1_[T8A]_[A9G]_T4.1 (ssRNA)
RNA: UCUCUUUGUAUCUAGUCUCUU
Q: How did the Kd turn out when B32 was run?
A: 43.8 nM
